The subject of assay [1] is neonatal rat ventricular myocytes. Nature of the assay: Voltage clamp of HCN2 or HCN4 plasmid (lipofectin) expressed in neonatal rat ventricular myocytes. It is filed as cell-based. From the text: cDNAs encoding mouse HCN2 (mHCN2, GenBank AJ225122) or HCN4 (mHCN4, GenBank deposit in progress) were subcloned into the pCI mammalian expression vector (Promega, Madison, Wis.). The resulting plasmids (pCI-mHCN2 or pCI-mHCN4) were used for neonatal rat ventricular myocyte transfection, as indicated. A separate plasmid (pEGFP-CI; Clontech, Palo Alto, Calif.) expressing the gene of enhanced green fluorescent protein (EGFP) as a visual marker for successful DNA transfer was included in all transfection experiments. For transfection, 2 μg of pCI-mHCN and […] of pEGFP-CI were first incubated in 200 μl of SFM containing 10 μl of lipofectin (Gibco Life Technologies, Rockville, Md.) at room temperature for 45 min. The mixture was then added to a 35-mm petri dish containing […] suspended in 0.8 ml of SFM. After overnight incubation at 37° C. in a CO2 incubator, the medium containing the plasmids and lipofectin was discarded and the dish was refilled with 2 ml of fresh SFM.
The whole-cell voltage clamp technique was employed to record native If or expressed IHCN2 or IHCN4. Action potentials were recorded in current clamp mode, again using a whole cell patch electrode. Experiments were carried out on cells superfused at 35° C. Extracellular solution contained (mM): NaCl, 140; NaOH, 2.3; MgCl2, 1; KCl, 5.4; CaCl2, 1.0; HEPES, 5; glucose, 10; pH 7.4. To record from myocytes expressing native currents (If), myocytes expressing HCN2 (IHCN2) or HCN4 (IHCN4), [K^+]0 was increased to 10 mM, and MnCl2 (2 mM) and BaCl2 (4 mM) added to the superfusate to eliminate calcium and inward rectifier (IK1) currents. In some experiments CsCl (4 mM) was used extracellularly to identify the pacemaker current as the Cs-sensitive current. The patch pipette solution included (mM): aspartic acid, 130; KOH, 146; NaCl, 10; CaCl2, 2; EGTA-KOH, 5; Mg-ATP, 2; HEPES-KOH, 10, pH 7.2. Where indicated, 10 μM cAMP was included in the pipette solution. A fast solution changing apparatus expedited the experimental protocols. The pipette resistance was typically 1-3 M. An Axopatch-200B amplifier and pClampS software (Axon Instruments) were used for acquisition and data analysis. […]
The activation relation of the native or expressed current can be determined from the steady-state I-V relation. In this case, the reversal potential (Vf) was separately determined from the fully activated I-V relation (Accili et al., 1991) and used to generate the activation relation (y=I/(gmax*(V−Vf)), where gmax is the maximal conductance). […] Tail currents were measured at a negative voltage (−125 mV) to avoid contamination by transient outward and other currents at less negative voltages. […]

In assay [2] the test system is adult ventricular myocytes. As to the kind of experiment: Voltage clamp (tail currents) of HCN2 expressed with AdHCN2 in adult ventricular myocytes. It is filed as cell-based, rat. Here is the method:
Freshly isolated adult ventricular myocytes were prepared using the procedure described by Kuznetsov et al. (1995). This entailed a Langendorff perfusion of collagenase, followed by trimming away of the atria. The remaining tissue was minced and dissociated in additional collagenase solution. The isolated myocytes were suspended in a SFM then plated on 9×22 mm glass coverslips at 0.5-1×10^3 cells/mm^2. Two to three hours later, after the myocytes had adhered to the coverslips, the adenoviral infection procedure was begun (see below).
For increased expression efficiency, an adenoviral construct for mHCN2 was prepared. Gene delivery and transfer procedures followed previously published methods (Ng et al., 2000; He et al., 1998). A DNA fragment (between EcoRI and XbaI restriction sites) that included mHCN2 DNA downstream of the CMV promoter was obtained from plasmid pTR-mHCN2 (Santoro and Tibbs, 1999) and subcloned into the shuttle vector pDC516 (AdMax™; Microbix Biosystems, Toronto, Canada). The resulting pDC516-mHCN2 shuttle plasmid was co-transfected with a 35.5 kb El-deleted Ad genomic plasmid pBHGΔE1,3FLP (AdMax™) into El-complementing HEK293 cells.
AdHCN2 infection of rat ventricular myocytes was carried out 2-3 h after the isolated cells were plated onto coverslips. The culture medium was removed from the dishes (35-mm) and the inoculum of 0.2-0.3 ml/dish was added containing AdHCN2. The value of m.o.i. (multiplicity of infection—the ratio of viral units to cells) was 15-100. The inoculum was dispersed over the cells every 20 min by gently tilting the dishes so that the cells were evenly exposed to the viral particles. The dishes were kept at 37° C. in a CO2 incubator during the adsorption period of 2 h, then the inoculum was discarded and the dishes were washed and refilled with the appropriate culture medium. The dishes remained in the incubator for 24-48 h before electrophysiological experiments were conducted.
The whole-cell voltage clamp technique was employed to record native If or expressed IHCN2 or IHCN4. Action potentials were recorded in current clamp mode, again using a whole cell patch electrode. Experiments were carried out on cells superfused at 35° C. Extracellular solution contained (mM): NaCl, 140; NaOH, 2.3; MgCl2, 1; KCl, 5.4; CaCl2, 1.0; HEPES, 5; glucose, 10; pH 7.4. To record from myocytes expressing native currents (If), myocytes expressing HCN2 (IHCN2) or HCN4 (IHCN4), [K^+]0 was increased to 10 mM, and MnCl2 (2 mM) and BaCl2 (4 mM) added to the superfusate to eliminate calcium and inward rectifier (IK1) currents. In some experiments CsCl (4 mM) was used extracellularly to identify the pacemaker current as the Cs-sensitive current. […]
The activation relation of the native or expressed current can be determined from the steady-state I-V relation. […]

“And” between values parts separate entries of the source, which are not always exact repeats. Equal entries are not always repeated.

Consider one molecule from patent US20070099268A1, “Chimeric HCN channels” (priority 2005, published 2007).

B1: mHCN2: mouse HCN2 hyperpolarization-activated, cyclic nucleotide-gated channel, wild type (GenBank AJ225122) (protein)
chain: MDARGGGGRPGDSPGTTPAPGPPPPPPPPAPPQPQPPPAPPPNPTTPSHPESADEPGPRARLCSRDSACTPGAAKGGANGECGRGEPQCSPEGPARGPKVSFSCRGAASGPSAAEEAGSEEAGPAGEPRGSQASFLQRQFGALLQPGVNKFSLRMFGSQKAVEREQERVKSAGAWIIHPYSDFRFYWDFTMLLFMVGNLIIIPVGITFFKDETTAPWIVFNVVSDTFFLMDLVLNFRTGIVIEDNTEIILDPEKIKKKYLRTWFVVDFVSSIPVDYIFLIVEKGIDSEVYKTARALRIVRFTKILSLLRLLRLSRLIRYIHQWEEIFHMTYDLASAVMRICNLISMMLLLCHWDGCLQFLVPMLQDFPSDCWVSINNMVNHSWSELYSFALFKAMSHMLCIGYGRQAPESMTDIWLTMLSMIVGATCYAMFIGHATALIQSLDSSRRQYQEKYKQVEQYMSFHKLPADFRQKIHDYYEHRYQGKMFDEDSILGELNGPLREEIVNFNCRKLVASMPLFANADPNFVTAMLTKLKFEVFQPGDYIIREGTIGKKMYFIQHGVVSVLTKGNKEMKLSDGSYFGEICLLTRGRRTASVRADTYCRLYSLSVDNFNEVLEEYPMMRRAFETVAIDRLDRIGKKNSILLHKVQHDLSSGVFNNQENAIIQEIVKYDREMVQQAELGQRVGLFPPPPPPQVTSAIATLQQAVAMSFCPQVARPLVGPLALGSPRLVRRAPPGPLPPAASPGPPAASPPAAPSSPRAPRTSPYGVPGSPATRVGPALPARRLSRASRPLSASQPSLPHGVPAPSPAASARPASSSTPRLGPAPTARTAAPSPDRRDSASPGAASGLDPLDSARSRLSSNL
As for B1, in assay [1] (lipofectin transfection), the “slope factor (K)” value amounted to 7.7±0.7 mV. Also, in assay [1] (neonatal myocytes), the “difference in midpoint of activation of HCN2 relative to HCN4” value was 8.5 mV and 9 mV. Moreover, in assay [2] (10 μM cAMP in the pipette), the “shift of voltage dependence by saturating cAMP, adult” value is given as 14 mV. The “slope factor (K), adult myocytes” value in assay [2] (AdHCN2) came to 6.5±0.5 mV. Also, the “negative shift of voltage dependence of activation/deactivation kinetics in the adult” value in assay [2] (adult vs neonatal) is given as 21 mV. Moreover, the “shift in the activation relation (midpoints), adult vs neonatal myocytes” value in assay [2] (negative in the adult) was determined as 18 mV.
